Measured values: paper PMC5352868, “Physicochemical and Biological Characterization of the Proposed Biosimilar Tocilizumab” (BioMed Research International, 2017)

Legend:
[1] = molecular target: T1, soluble interleukin-6 receptor (sIL-6R) (Homo sapiens, UniProt P08887); assay: cell-based or functional assay
[2] = molecular target: T1, soluble interleukin-6 receptor (sIL-6R); assay: SPR; Biacore X100 plus; anti-Fc antibody immobilised on CM5 chip (~2500 RU) captures the antibody sample (1.0 ug/mL, 10 uL/min, 60 s); IL-6R injected 150 to 4.7 ng/mL, 30 uL/min, 180 s, dissociation 500 s, HBS-EP+ buffer; minimum and maximum of four batches; conditions: both partners purified

T1 sequence (P08887 20-365): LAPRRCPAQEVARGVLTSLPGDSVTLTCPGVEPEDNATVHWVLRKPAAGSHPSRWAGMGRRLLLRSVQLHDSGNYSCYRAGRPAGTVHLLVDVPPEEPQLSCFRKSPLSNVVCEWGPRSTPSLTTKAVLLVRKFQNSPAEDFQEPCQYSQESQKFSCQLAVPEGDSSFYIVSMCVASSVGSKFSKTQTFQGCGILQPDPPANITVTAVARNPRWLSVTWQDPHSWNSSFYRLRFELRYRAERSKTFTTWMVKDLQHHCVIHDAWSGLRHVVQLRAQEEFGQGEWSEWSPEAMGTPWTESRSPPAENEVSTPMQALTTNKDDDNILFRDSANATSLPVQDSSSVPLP

Binder | DS-1 cell growth inhibition (CCK-8, 72 hrs, antibody 800 ug/mL to 12.21 ng/mL), relative potency (EC50) towards originator tocilizumab, batch 1 of 4; blocks IL-6 with IL-6R on the cells [1] [% relative potency] | DS-1 cell growth inhibition (CCK-8, 72 hrs, antibody 800 ug/mL to 12.21 ng/mL), relative potency (EC50) towards originator tocilizumab, batch 2 of 4; blocks IL-6 with IL-6R on the cells [1] [% relative potency] | DS-1 cell growth inhibition (CCK-8, 72 hrs, antibody 800 ug/mL to 12.21 ng/mL), relative potency (EC50) towards originator tocilizumab, batch 3 of 4; blocks IL-6 with IL-6R on the cells [1] [% relative potency] | DS-1 cell growth inhibition (CCK-8, 72 hrs, antibody 800 ug/mL to 12.21 ng/mL), relative potency (EC50) towards originator tocilizumab, batch 4 of 4; blocks IL-6 with IL-6R on the cells [1] [% relative potency] | Kd [2] [nM]
HS628 (proposed biosimilar tocilizumab) (antibody, V domains shown, found identical to the heavy chain of m1; found identical to the light chain of m1; IgG1; Four batches tested (20130901-20130904); source: Zhejiang Hisun Pharmaceutical; copies: 2 + 2) VH: EVQLQESGPGLVRPSQTLSLTCTVSGYSITSDHAWSWVRQPPGRGLEWIGYISYSGITTYNPSLKSRVTMLRDTSKNQFSLRLSSVTAADTAVYYCARSLARTTAMDYWGQGSLVTVSS VL: DIQMTQSPSSLSASVGDRVTITCRASQDISSYLNWYQQKPGKAPKLLTYYTSRLHSGVPSRFSGSGSGTDFTFTISSLQPEDIATYYCQQGNTLPYTFGQGTKVEIK | 98 | 102 | 94 | 105 | 0.92 to 1.17
Originator tocilizumab (Actemra) (antibody, V domains shown, Recombinant humanized IgG1; also called originator product; source: bought: Roche Pharma (Schweiz) Ltd. (manufactured by Chugai Pharma Manufacturing Co., Ltd.); copies: 2 + 2) VH: EVQLQESGPGLVRPSQTLSLTCTVSGYSITSDHAWSWVRQPPGRGLEWIGYISYSGITTYNPSLKSRVTMLRDTSKNQFSLRLSSVTAADTAVYYCARSLARTTAMDYWGQGSLVTVSS VL: DIQMTQSPSSLSASVGDRVTITCRASQDISSYLNWYQQKPGKAPKLLTYYTSRLHSGVPSRFSGSGSGTDFTFTISSLQPEDIATYYCQQGNTLPYTFGQGTKVEIK | – | – | – | – | 1.08 to 1.78
